According to patent publication US20230220115A1:

Key:
[1] = target: recombinant human Fc gamma receptor CD32a 131R (human) (UniProt P12318)
[2] = target: recombinant human Fc gamma receptor CD32b/c (human) (UniProt P31994)
[3] = target: recombinant human Fc gamma receptor CD16b (FcRγIIIb) (human) (UniProt O75015)
[4] = target: recombinant human Fc gamma receptor CD32a 131H (human) (UniProt P12318)
[5] = target: recombinant human Fc gamma receptor CD64 (FcRγI) (human) (UniProt P12314)
[6] = target: recombinant human Fc gamma receptor CD16a 158V (FcRγIIIa) (human) (UniProt P08637)
CD20 Lipoparticles = CD20 Lipoparticles (UniProt P11836)
CD20 Lipoparticles, sequence (P11836 whole entry): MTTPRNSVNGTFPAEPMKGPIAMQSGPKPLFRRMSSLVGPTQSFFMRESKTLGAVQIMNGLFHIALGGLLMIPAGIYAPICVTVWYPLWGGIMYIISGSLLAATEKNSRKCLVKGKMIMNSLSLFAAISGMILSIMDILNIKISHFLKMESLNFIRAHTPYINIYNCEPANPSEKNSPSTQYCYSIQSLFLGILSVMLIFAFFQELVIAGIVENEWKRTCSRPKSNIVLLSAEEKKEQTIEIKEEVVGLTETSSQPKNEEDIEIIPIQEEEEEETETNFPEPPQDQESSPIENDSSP

recombinant human Fc gamma receptor CD32a 131R (human), sequence (P12318 36-218 H167R): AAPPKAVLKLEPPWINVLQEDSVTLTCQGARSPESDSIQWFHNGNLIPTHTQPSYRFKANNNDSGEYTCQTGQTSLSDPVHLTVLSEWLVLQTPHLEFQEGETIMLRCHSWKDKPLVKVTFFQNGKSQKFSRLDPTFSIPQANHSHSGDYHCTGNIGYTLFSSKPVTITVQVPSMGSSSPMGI
recombinant human Fc gamma receptor CD32b/c (human), sequence (P31994 46-217): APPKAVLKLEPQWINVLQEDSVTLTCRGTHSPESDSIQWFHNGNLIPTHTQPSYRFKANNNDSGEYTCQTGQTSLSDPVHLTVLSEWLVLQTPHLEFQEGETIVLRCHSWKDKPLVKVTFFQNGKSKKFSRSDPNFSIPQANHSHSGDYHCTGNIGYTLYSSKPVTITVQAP
recombinant human Fc gamma receptor CD16a 158V (FcRγIIIa) (human), sequence (P08637 17-208 F176V limits assumed): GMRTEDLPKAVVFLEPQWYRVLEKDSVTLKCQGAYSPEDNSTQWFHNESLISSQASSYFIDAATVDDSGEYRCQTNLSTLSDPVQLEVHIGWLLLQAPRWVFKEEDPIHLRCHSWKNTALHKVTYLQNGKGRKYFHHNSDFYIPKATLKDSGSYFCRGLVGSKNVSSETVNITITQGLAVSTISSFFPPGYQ
recombinant human Fc gamma receptor CD32a 131H (human), sequence (P12318 36-218): as the sequence (P12318 36-218 H167R) above, with R132H counted along it
recombinant human Fc gamma receptor CD16b (FcRγIIIb) (human), sequence (O75015 17-200 limits assumed): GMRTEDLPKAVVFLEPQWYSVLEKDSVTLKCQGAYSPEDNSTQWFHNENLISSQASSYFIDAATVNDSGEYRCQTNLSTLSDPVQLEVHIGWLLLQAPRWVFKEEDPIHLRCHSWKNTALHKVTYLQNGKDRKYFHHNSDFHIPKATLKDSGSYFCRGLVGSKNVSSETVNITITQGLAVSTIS
recombinant human Fc gamma receptor CD64 (FcRγI) (human), sequence (P12314 16-288 limits assumed): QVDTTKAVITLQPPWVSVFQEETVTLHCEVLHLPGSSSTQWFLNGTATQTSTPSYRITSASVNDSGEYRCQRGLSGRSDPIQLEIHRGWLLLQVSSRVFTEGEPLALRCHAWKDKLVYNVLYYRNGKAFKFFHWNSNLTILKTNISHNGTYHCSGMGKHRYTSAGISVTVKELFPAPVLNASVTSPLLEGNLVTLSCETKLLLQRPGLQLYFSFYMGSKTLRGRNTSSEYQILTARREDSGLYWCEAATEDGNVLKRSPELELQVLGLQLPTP

Q: Which results are given for Rituxan (antibody)?
A: Kd [1]: 1250 nM; Kd [2]: 1520 nM; Kd [3]: 1530 nM; Kd [4]: 892 nM; Kd [5]: 52.8 nM; Kd [6]: 715 nM; Kd (CD20 Lipoparticles): < 1 pM
